Reference: IntAct's records for PubMed 15811349

Legend:
afad_human AFDN = afad_human AFDN (UniProt P55196)
pick1_mouse Pick1 = pick1_mouse Pick1 (UniProt Q62083)
Chain of UniProt Q62083 (Q62083 whole entry): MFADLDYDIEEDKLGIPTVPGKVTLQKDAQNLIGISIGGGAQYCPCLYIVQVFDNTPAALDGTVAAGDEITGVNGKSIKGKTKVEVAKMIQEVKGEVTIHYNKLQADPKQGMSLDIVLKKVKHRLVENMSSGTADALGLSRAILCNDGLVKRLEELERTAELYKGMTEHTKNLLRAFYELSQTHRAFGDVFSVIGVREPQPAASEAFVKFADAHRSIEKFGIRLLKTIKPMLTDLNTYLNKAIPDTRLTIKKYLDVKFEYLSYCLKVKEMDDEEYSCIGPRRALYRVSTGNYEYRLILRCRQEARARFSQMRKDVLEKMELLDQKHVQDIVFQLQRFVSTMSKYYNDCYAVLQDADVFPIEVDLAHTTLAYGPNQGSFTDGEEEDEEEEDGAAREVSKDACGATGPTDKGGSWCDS

Chain of UniProt P55196 (P55196 whole entry): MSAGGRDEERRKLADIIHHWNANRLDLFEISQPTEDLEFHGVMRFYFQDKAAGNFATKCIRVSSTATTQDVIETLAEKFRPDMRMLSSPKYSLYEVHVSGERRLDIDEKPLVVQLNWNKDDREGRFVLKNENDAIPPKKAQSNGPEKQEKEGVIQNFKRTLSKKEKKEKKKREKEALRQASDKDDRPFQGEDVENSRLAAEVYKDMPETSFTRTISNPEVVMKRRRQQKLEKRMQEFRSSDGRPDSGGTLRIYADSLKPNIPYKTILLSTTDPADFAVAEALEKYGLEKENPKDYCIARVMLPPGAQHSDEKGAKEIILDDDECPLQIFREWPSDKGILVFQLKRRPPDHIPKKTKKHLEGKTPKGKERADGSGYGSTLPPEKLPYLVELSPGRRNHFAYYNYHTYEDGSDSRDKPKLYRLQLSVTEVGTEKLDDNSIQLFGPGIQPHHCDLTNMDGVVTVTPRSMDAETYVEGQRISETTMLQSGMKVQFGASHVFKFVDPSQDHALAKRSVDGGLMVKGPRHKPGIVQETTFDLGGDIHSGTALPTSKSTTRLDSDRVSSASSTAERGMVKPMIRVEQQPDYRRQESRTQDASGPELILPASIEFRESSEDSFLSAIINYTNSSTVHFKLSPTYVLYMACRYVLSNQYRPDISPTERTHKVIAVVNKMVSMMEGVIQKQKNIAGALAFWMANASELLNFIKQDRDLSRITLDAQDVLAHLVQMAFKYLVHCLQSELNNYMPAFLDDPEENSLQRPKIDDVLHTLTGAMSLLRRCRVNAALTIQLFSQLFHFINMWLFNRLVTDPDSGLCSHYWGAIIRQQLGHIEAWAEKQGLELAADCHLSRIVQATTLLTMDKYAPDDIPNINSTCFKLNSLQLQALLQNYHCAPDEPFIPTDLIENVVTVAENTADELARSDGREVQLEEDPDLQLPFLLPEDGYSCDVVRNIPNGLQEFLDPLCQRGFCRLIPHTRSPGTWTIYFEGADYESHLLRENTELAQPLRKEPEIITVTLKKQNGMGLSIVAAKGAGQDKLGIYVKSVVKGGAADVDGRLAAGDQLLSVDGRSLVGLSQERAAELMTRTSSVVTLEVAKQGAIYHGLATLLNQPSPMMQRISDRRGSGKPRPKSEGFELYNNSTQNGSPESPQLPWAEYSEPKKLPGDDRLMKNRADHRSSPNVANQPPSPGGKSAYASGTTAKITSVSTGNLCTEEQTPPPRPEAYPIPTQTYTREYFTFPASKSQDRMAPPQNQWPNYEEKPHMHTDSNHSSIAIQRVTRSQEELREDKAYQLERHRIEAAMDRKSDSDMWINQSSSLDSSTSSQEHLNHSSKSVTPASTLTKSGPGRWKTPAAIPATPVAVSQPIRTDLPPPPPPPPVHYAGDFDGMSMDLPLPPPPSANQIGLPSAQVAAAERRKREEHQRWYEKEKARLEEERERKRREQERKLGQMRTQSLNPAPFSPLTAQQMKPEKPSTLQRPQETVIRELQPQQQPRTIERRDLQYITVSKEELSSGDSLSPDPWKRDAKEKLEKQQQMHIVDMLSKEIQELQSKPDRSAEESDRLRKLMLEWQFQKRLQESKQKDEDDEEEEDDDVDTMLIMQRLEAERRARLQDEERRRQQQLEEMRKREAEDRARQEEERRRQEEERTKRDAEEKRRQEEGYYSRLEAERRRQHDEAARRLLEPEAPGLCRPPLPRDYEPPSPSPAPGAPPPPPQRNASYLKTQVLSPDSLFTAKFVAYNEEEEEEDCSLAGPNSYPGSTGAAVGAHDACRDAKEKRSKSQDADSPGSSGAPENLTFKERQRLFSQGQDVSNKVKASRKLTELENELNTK

| effect of a mutation on the interaction (afad_human AFDN) | effect of a mutation on the interaction (pick1_mouse Pick1) | Substance |
| --- | --- | --- |
| disrupting interaction |  | Nectin-3 (Homo sapiens) (from UniProt Q9NQS3) Y548A |
|  | disrupting interaction | Nectin-3 (Homo sapiens) (from UniProt Q9NQS3) E546G |
| disrupting interaction | decreasing interaction | Nectin-3 (Homo sapiens) (from UniProt Q9NQS3) V549A |
